Measurements taken from patent US20210277150A1.

Assays:
[1] = target: FcgammaRIIIA (CD16a), F allotype (human) (UniProt P08637); assay: SPR equilibrium fit; reference WT IgG1
[2] = target: FcgammaRIIB (CD32b) (human) (UniProt P31994); assay: SPR equilibrium fit; reference WT IgG1
Chain of FcgammaRIIB (CD32b) (human) (P31994 43-217 limits assumed): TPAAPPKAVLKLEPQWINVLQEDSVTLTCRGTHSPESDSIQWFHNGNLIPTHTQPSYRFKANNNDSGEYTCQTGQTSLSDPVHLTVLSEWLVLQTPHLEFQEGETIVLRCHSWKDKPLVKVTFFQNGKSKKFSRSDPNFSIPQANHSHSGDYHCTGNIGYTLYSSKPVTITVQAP

Chain of FcgammaRIIIA (CD16a), F allotype (human) (P08637 17-208 limits assumed): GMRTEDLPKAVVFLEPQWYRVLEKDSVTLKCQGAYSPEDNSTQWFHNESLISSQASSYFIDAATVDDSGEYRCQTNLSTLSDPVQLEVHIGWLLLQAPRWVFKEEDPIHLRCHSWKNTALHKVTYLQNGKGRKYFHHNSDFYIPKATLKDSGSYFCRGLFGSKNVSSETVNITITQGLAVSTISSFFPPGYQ

For “Control 1 (K409D_K392D/D399K_D356K) (antibody)”, the Ratio WT/Variant of kD [1] was 1.28 and the Ratio WT/Variant of kD [2] was 1.68.

“Control 2 (T366S_L368A_Y407V/T366W) (antibody)” gave a Ratio WT/Variant of kD [1] of 1.1 and a Ratio WT/Variant of kD [2] of 1.13.
